Measured values published in paper PMC11286295, “Aspartate aminotransferase of Rhizobium leguminosarum has extended substrate specificity and metabolizes aspartate to enable N2 fixation in pea nodules” (Microbiology, 2024).

What was measured:
Experiment in all cases: purified protein
purified protein [1] = substrate: O=C(O)CCC(=O)C(=O)O; format: biochemical, Rhizobium leguminosarum; conditions: AKT reaction, co-substrate aspartate, 0.05 mM PLP, 100 mM phosphate pH 7.5, 30 °C
purified protein [2] = substrate: CC(=O)C(=O)O; format: biochemical, Rhizobium leguminosarum; conditions: APT reaction, co-substrate aspartate, 0.05 mM PLP, 100 mM phosphate pH 7.5, 30 °C
purified protein [3] = substrate: N[C@@H](CCC(=O)O)C(=O)O; format: biochemical, Rhizobium leguminosarum; conditions: GOT reaction, co-substrate oxaloacetate, 0.05 mM PLP, 100 mM NH4Cl, 100 mM phosphate pH 7.5, 30 °C
purified protein [4] = substrate: N[C@@H](CC(=O)O)C(=O)O; conditions: AKT reaction, co-substrate α-ketoglutarate, 0.05 mM PLP, 100 mM phosphate pH 7.5, 30 °C
purified protein [5] = substrate: O=C(O)CC(=O)C(=O)O; conditions: GOT reaction, co-substrate glutamate, 0.05 mM PLP, 100 mM NH4Cl, 100 mM phosphate pH 7.5, 30 °C

B1: AatA (Rhizobium leguminosarum bv. phaseoli) (protein)
chain: MAFLADALSRVKPSATIAVSQKARELKAKGRDVIGLGAGEPDFDTPDNIKKAAIDAINRGETKYTPVSGIPELRKAIAAKFKRENGLDYSWEQTIVGTGGKQILFNAFMATLNPGDEVSIPAPYWVSYPEMVALCGGTRFFVSATQEHNFKLQAADLEKAITPKTKWFIFNSPSNPTGAAYTHDELKALTDVLMKNPQVWVLTDDMYEHLTYGDFKFVTPVEVEPQLYDRTLTMNGVSKAYAMTGWRIGYAAGPIQLIKAMDMIQGQQTSGATSIAQWAAVEALNGTQDFIPENKKIFEGRRDLVVSMLNQAKGIVCPVPEGAFYVYPSCKGLIGKTAPSGKVIETDEDFVSELLESEGVAVVHGSAFGLGPNFRISYATSEEQLEEACRRIQRFCGACK
notes: recombinant from A34 gDNA in pET101/D-TOPO (pRU1152; vector with V5-tag and 6xHis), E. coli BL21 Star (DE3), His-Trap purified (histidine elution); expected homodimer; glycine at position 266
Km (purified protein [1]): 320 ± 20 µM | kcat (purified protein [1]): 130.97 ± 2.18 s⁻¹ | Km (purified protein [2]): 17000 ± 2000 µM | kcat (purified protein [2]): 98.96 ± 4.37 s⁻¹ | Km (purified protein [3]): 4430 ± 520 µM | kcat (purified protein [3]): 163.71 ± 3.64 s⁻¹ | Km (purified protein [4]): 1740 ± 320 µM | kcat (purified protein [4]): 125.88 ± 5.09 s⁻¹ | Km (purified protein [5]): 180 ± 30 µM | kcat (purified protein [5]): 168.08 ± 6.55 s⁻¹
